# From the nanobody polyreactivity screen of Harvey et al. (2022)
# Test: yeast display, Sf9 membrane polyspecificity reagent, FACS + sequencing; frameworks hold sequencing errors
# Summary of the method: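 Nanobodies from a synthetic yeast display library (Saccharomyces cerevisiae BJ5465), induced 36–48 hours with galactose, were stained 1 hour at 4 °C with 10% biotinylated, detergent-solubilized Sf9 membrane reagent, enriched on streptavidin microbeads, then FACS-sorted. Anti-HA (expression) and streptavidin (reagent binding) fluorescence set low and high (top ~1%) gates. Polyreactivity labels come from the gate of origin. Genes were colony-PCR amplified, MiSeq 2 × 250 sequenced and filtered by CDR length.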
row,Sequence,polyreactivity (PSR sort gate)
1,QVQLVESGGGLVQAGGSLRLSCAASGFTFSNYAMGWYRQAPGKEREFVAAISGTGGSTYYADSVKGRFTISRDNAKNTVYLQMNSLKPEDTAVYYCARRRTYPPGRYYYWGQGTQVTVSS,high polyreactivity
2,QVQLVESGGGLVQAGGSLRLSCAASGFTFSPNAMGWYRQAPGKERELVAAIDWNGGSTYYADSVKGRFTISRDNAKNTVYLQMNSLKPEDTAVYYCNADWVYWQYLTSFVTFDYWGQGTQVTVSS,low polyreactivity
3,QVQLVESGGGLVQAGGSLRLSCAASGFTFSPYAMGWYRQAPGKERELVAAISSSGGSTYYADSVKGRFTISRDNAKNTVYLQMNSLKPEDTAVYYCATQGTRRPGKFYYWGQGTQVTVSS,high polyreactivity
4,QVQLVESGGGLVQAGGSLRLSCAASGFTFSPYTMGWYRQAPGKEWELVATIRYDGTSTYYADSVKGRFTISRDNAKNTVFLQMNSLKPEDTEVYYCAADIWRVYSTIYYWGQGTQVTVSS,low polyreactivity
5,QVQLVESGGGLVQAGGSLRLSCAASGFTFSPYVMGWYRQAPGKERELVATITAGGSSTFYADSVKGRFTISRDNAKNTVYLQMNSLKPEDTAVYYCNTVSPSFVYESTSDRFDYWGQGTQVTVSS,low polyreactivity
6,QVQLVESGGGLVQAGGSLRLSCAASGFTFSQNAMGWYRQAAGKERELVAAITGDGGSTYYADSVKGRFTISRDNAKNTVFLQMNSLKPEDTAVYYCAADPSPYSAFGIYWFRYDYWGQGTQVTVSS,low polyreactivity
7,QVQLVESGGGLVQAGGSLRLSCAASGFTFSRNAMGWYIQAPGKERELVAAISQSGGSTYYADSVKGRFTISRDNAKNTVYLQMNSLKPEDTAVYYCAAQSFAQYGWRYGYWGQGTQVTVSS,high polyreactivity
8,QVQLVESGGGLVQAGGSLRLSCAASGFTFSRYAMGWYRQAPGKERELVAAISRSGGRTSYADSVKGRFTISRDNSKNTVFLQMNSLKPEDTAVYYCAARTATGSSSSIGYGYWGQGTQVTVSS,high polyreactivity
9,QVQLVESGGGLVQAGGSLRLSCAASGFTFSSNAMGWFRQAPGKERELVAAISFSGTRTYYADSVKGRFTISRDNAKKTVYLQMNSLKPEDTAVYYCAAGRHYGPLSGRTKGMEYWGQGTQVTVSS,high polyreactivity
10,QVQLVESGGGLVQAGGSLRLSCAASGFTFSSNAMGWYRQAPGKERELVAAIRSDGVRTYYADSVKGRFTISRDNAKNTVYLQMNSLKPEDTAVYYCNSVSDVRIGAGDYWGQGTQVTVSS,high polyreactivity
11,QVQLVESGGGLVQAGGSLRLSCAASGFTFSSYAMGWYRQAPGKERELVAAITYRGGSTYYADSVKGRFTISRDNAKNTVYLQMNSLKPEDTAVYYCAARWGYRMYWGQGTQVTVSS,high polyreactivity
12,QVQLVESGGGLVQAGGSLRLSCAASGFTFSTNAMGWYRQAPGKERELVAAISPDGGTYYADSVKGRFTISRDNAKNTVYLQMNSLKPEDTAVYYCAAVWGRGVWDLYDYWGQGTQVTVSS,low polyreactivity
13,QVQLVESGGGLVQAGGSLRLSCAASGFTFSTYAMGWYRQAPGKESELVAAITRSGGSTYYADSVKGRFTISRDIEKNTVYLQMNSLKQEDTAVYYCATDASFYDPDLYPYGYDYWGQGTQVTVSS,high polyreactivity
14,QVQLVESGGGLVQAGGSLRLSCAASGFTFSVNAMGWYRQAPGKERELVADIDWSGGSTYYADSVKGRFTISRDNAKNTVYLQMNSLKPEDTAVYYCSADYYSPDSYVQGSSGEYWGQGTQVTVSS,low polyreactivity
15,QVQLVESGGGLVQAGGSLRLSCAASGFTFSWYAMGWYRQAPGKEMELVAAIDDGGSTYYADSVKGRFTISRDNAKNTVYLQMNSLKPEDTAVYYCNARGYGTLNVRRERMDYWGQGTQVTVSS,high polyreactivity
16,QVQLVESGGGLVQAGGSLRLSCAASGFTFSWYAMGWYRQAPGKERELVAAISSAGNTNYADSVKGRFTISRDNAKNTVYLQMNSLKPEDTAVYYCAKRDYWGQGTQVTVSS,high polyreactivity
17,QVQLVESGGGLVQAGGSLRLSCAASGFTFSWYAMGWYRQAPGKERELVAAITSGGGTNYADSVKGRFTISRDNAKNTVYLQMNSLKPEDTAVYYCAARGRWFYYLDDYWGQGTQVTVSS,low polyreactivity
18,QVQLVESGGGLVQAGGSLRLSCAASGFTFSYNAMGWYRQAPGKERELVAAITYSAGNTYYADSVKGRFTISRDNAKNTVYLQMNSLKPEDTAVYYCNAVTKHRAITNMDYWGQGTQVTVSS,high polyreactivity
19,QVQLVESGGGLVQAGGSLRLSCAASGFTFSYNTMGWYRQAPGKERELVAAISGSGARTYYADSVKGRFTISRDNAKNSVYLQMNSLKPEDTAVYYCNAKYGYDSEARIVKPVRYDYWGQGTQVTVSS,high polyreactivity
20,QVQLVESGGGLVQAGGSLRLSCAASGFTFSYYAMGWYIQAPGKERELVATITWGGGRTYYADSVKGRFTISRDNAKNTVYLQMNSLKPEDTAVYYCNAERTYFQYYRNYDYWGQGTKVTVSS,low polyreactivity
21,QVQLVESGGGLVQAGGSLRLSCAASGFTFSYYAMGWYRQAPGKERELVAAISWNGGSTYYADSVKGRFTISRDNAKNTVYLQMNSLKPEDTAVNYCAADSLLYYYDTGYEYWGQGTQVTVSS,high polyreactivity
22,QVQLVESGGGLVQAGGSLRLSCAASGFTFSYYAMGWYRQAPGKERELVARISFSGTRTYYADSVKGRFTISRDNAKNTVYLEMNSLKPEDTAVYYCAARFGYVGITARYDYWGQGTQVTVSS,high polyreactivity

row,Sequence,polyreactivity (PSR sort gate)
1,QVQLVESGGGLVQAGGSLRLSCAASGFTFSYYAMGWYRQAPGKERELVATITWDGGSTYYADSVKGRFTISRDNAKNTVYLQMNSLKPEDTAVYYCAAQYYRWQTKYDYWGQGTQVTVSS,high polyreactivity
2,QVQLVESGGGLVQAGGSLRLSCAASGFTFSYYVMGLYRQAPGKERELVAAITSGGSTYYADSVKGRFTISRDNAKNTVYLQMNSLKPEDTAVYYCNARTYSRVTRQTYRYRPYDYWGQGTQVTVSS,high polyreactivity
3,QVQLVESGGGLVQAGGSLRLSCAASGFTFTAYAMGWSRQAPGKERELVAAISSGGSTYYADSVKGRFTISRDNAKNTVYLQMNSLKPEDTAVYYCAAVGVYTVKREYWGQGTQVTVSS,low polyreactivity
4,QVQLVESGGGLVQAGGSLRLSCAASGFTFTAYAMGWYRQAPGKERELVAAISRSGGSTSYADSVKGRFTISRDNAKNTVYLQMNSLKPEDTAVYYCAAGRVGWGQGTQVTVSS,high polyreactivity
5,QVQLVESGGGLVQAGGSLRLSCAASGFTFTGNAMGWYRQAPGKERELVAAITSGGRTYYADSVKGRFTISRDNAKNTVYLQMNSLIPEDTAVYYCNTAGLKRYVTFYYWGQGTQVTVSS,high polyreactivity
6,QVQLVESGGGLVQAGGSLRLSCAASGFTFTMNAMGWYRQAPGKERELVAGISSGGSTNYADSVKGRFTLSRDNEKNTVYLQMNSLKPEDTAVYYCAADRGYVWRYDYWGQGTQVTVSS,low polyreactivity
7,QVQLVESGGGLVQAGGSLRLSCAASGFTFTNYVMGWYRQAPGKETELVAAIRRSGDSTYYADSVKGRFTISRDNAKNTVYLQMNSLKPEATAVYYCNAVAYGRTYDYWGQGTQVTVSS,high polyreactivity
8,QVQLVESGGGLVQAGGSLRLSCAASGFTFTRYAMGWYRQAPGKERELVAAISSRGGSTNYADSVKGRFTISRDNAKNTVYLQMNSLKPEDTAVYYCAAEYYRLRYEYDYWGQGTQVTVSS,high polyreactivity
9,QVQLVESGGGLVQAGGSLRLSCAASGFTFTRYAMGWYRQAPGKERELVAAISWNSGSTYYADSVKGRFTISRDNAKNTVYLQMNSLKPEDTAVYYCAAAFLRVYYGYTGAFDYWGQGTQVTVSS,high polyreactivity
10,QVQLVESGGGLVQAGGSLRLSCAASGFTFTSYVMGWYRQAPGKEREFVAAITRSAGGTYYADSVKGRFTISRDNAQNTFYLQINSLKPEDTAVYYCAAEYYVPGGGAYRGDYWGQGTQVTGSS,high polyreactivity
11,QVQLVESGGGLVQAGGSLRLSCAASGFTFTWYAMGWYRPAPGKERELVAAISSGGGRTYYADSVKGRFTISRDNAKNTVYLQMNSLKPEDTAVYYCNKVSSFGYYYWGQGTQVTVSS,high polyreactivity
12,QVQLVESGGGLVQAGGSLRLSCAASGFTFTWYAMGWYRQAPGKERELVATISRSGGRTYYADSVKGRFTISRDNAKNPVYLQMNSLKPEVTAVYYCAADTRNYPRYDYWGQGTQVTVSS,high polyreactivity
13,QVQLVESGGGLVQAGGSLRLSCAASGFTFTWYAMGWYRQAPGKERELVATISRSGGRTYYADSVKGRFTISRDNAKNTVYLQMNSLKPEDTAVYYCAADTRNYPRYDYWGQGTQVTVSS,high polyreactivity
14,QVQLVESGGGLVQAGGSLRLSCAASGFTFTYNAMGWYRQAPGKERELVAAITANGGGTNYADSVKGRFTISRDNEKNTVYLQMNSLKPEDTAVYYCAATIVVAVFESLGFYWYTEDNYWGQGTQVTVSS,low polyreactivity
15,QVQLVESGGGLVQAGGSLRLSCAASGFTFTYNAMGWYRQAPGKERELVAAITLSGGSTYADSVKGRFTISRDNAKNTVYLQMNSLKPEDTAVYYCNADAGVYSANATDGYDYWGQGTQVTVSS,low polyreactivity
16,QVQLVESGGGLVQAGGSLRLSCAASGFTFTYYAMGWYRQAPGKERELVAAITKSGGSTYYADSVKGRFTISRDNAKNTVYFQMNSLKPEDTAVYYCAADTRYGRERYYWGQGTQVTVSS,high polyreactivity
17,QVQLVESGGGLVQAGGSLRLSCAASGFTFTYYTMGWYRQAPGKERELVAAISWSGSSTYYADSVKGRFTISRDNAKNTVYLQMNSLKPEDTAVYYCAAKYRGKYYYWGQGTQVTVSS,high polyreactivity
18,QVQLVESGGGLVQAGGSLRLSCAASGFTFVAYAMGWYRQAPGKERELVAALRRTGGSSSYADSVKGRFTISRDIAKNTVYLQMNRLKPEDTSVYYCNKVRLISGVYWSYQAFGYWGQGTQVTVSS,high polyreactivity
19,QVQLVESGGGLVQAGGSLRLSCAASGFTFVEYAMGWYRQAPGKERELVASIRRSGGRTYYADSVKGRFTISRDNAKNTVYLQMNSLKPEDTAVYYCAKSVPRYYSKSGLAYEFDYWGQGTQVTVSS,low polyreactivity
20,QVQLVESGGGLVQAGGSLRLSCAASGFTFVFYAMGWYRQAPGKERELVAGISRTGGSTYYADSVKGRFTISRDNAKNTVYLQMNSLKPEDTAVYYCNAARFTRRDYWGQGTQVTVSS,high polyreactivity
21,QVQLVESGGGLVQAGGSLRLSCAASGFTFVGNAMGWYRQAPGKERELVATITSGGNTKYADSVKGRFTISRDNAKNTVYLQMNSLKPEDTAVYYCAAAKYNYRRFNSWGQGTQVTVSS,low polyreactivity
